Data: patent US20200297842A1 (published 2020)
Substitutions are numbered along the chain they refer to.

B1: SIRP6 (antibody, V domains shown)
VH: QIQLVQSGPELKKPGETVKISCKASGYTFTDYGVNWVKQGPGKDLQWMGWVNTNTRESTYVEDFKGRFAFSLETSASTAYLQINNLKNEDSSTYFCARGAYDAYYYYYGMDYWGQGTSVTVSS
VL: DIQMTQSPASLSASVGETVTITCRASENIYSYLTWYKQKQGKSPQLLVYNAKTLAEGVPSRFSGSGSGTQFSLKINSLQPEDFGSYYCQHHYGSPRTFGGGTKLEIK
B2: SIRP10 (antibody, V domains shown)
VH: EVQLQESGAELVRPGTSVKMSCKAAGYTFSNYLIGWIKQRPGHGLEWIGDIYPGDNNTNYNEKFRVKATLTADTSSNTAYMHLTSLTSEDSAIYYCAGGTDYDGFANWGQGTLVTVSA
VL: ENVLTQSPAIMSASLGEKVTMSCRASSSVNYMYWYQQKSDASPKLWIYYTSKLAPGVPARFSGSGSGNSYSLTISSMEGEDAATYYCQQFTSSPFTFGSGTKLEIK
B3: SIRP23 (antibody, human IgG4 S228P, kappa, V domains shown)
VH: EVQLQQSGPDLVKPGASVKISCKASGYSFTDYFLNWVKQSHGKSLEWIGRINPYNGDSFINQNFRDKATLTVDKSSTTAHMDLLSLTSEDSAIYYCGRGGYDGYFIAYFDYWGQGSLVTVSA
VL: DIKMTQSPSSMYASLGQRVTITCKASQDINSHLSWFQEKPGKSPKTLIYRANRLADGVPSRFSGSGSGQDYFLTISSLEYEDVGIYYCLQYDEFPYTFGGGTKLEIKR
B4: SIRP11 (antibody, human IgG4 S228P, kappa, V domains shown)
VH: QVQLVQSGAEVKKPGASVKVSCKASGYSFTDYFLNWVRQAPGQGLEWMGRINPYNGDSFINQNFRDRVTMTRDTSTSTVYMELSSLRSEDTAVYYCARGGYDGYFIAYFDYWGAGTTVTVSS
VL: DIQMTQSPSSLSASVGDRVTITCKASQDINSHLSWYQQKPGKAPKLLIYRANRLATGVPSRFSGSGSGTDFTFTISSLQPEDIATYYCLQYDEFPYTFGGGTKLEIKR
notes: shares the heavy-chain CDRs of SIRP4
B5: SIRP17 (antibody, human IgG4 S228P, kappa, V domains shown)
VH: EVQLVQSGAEVKKPGESLKISCKGSGYSFTDYFLNWVRQMPGKGLEWMGRINPYNGDSFINQNFRDQVTISADKSISTAYLQWSSLKASDTAMYYCARGGYDGYFIAYFDYWGAGTTVTVSS
VL: B4 VL
B6: SIRP12 (antibody, human IgG4 S228P, kappa, V domains shown)
VH: B4 VH
VL: B4 VL with Q79E, P80Y
B7: SIRP20 (antibody, human IgG4 S228P, kappa, V domains shown)
VH: B4 VH with R72V
VL: B4 VL
B8: SIRP18 (antibody, human IgG4 S228P, kappa, V domains shown)
VH: B5 VH
VL: B4 VL with Q79E, P80Y
B9: SIRP15 (antibody, human IgG4 S228P, kappa, V domains shown)
VH: B4 VH with A16S, M70I, R72A, T74K, V79A
VL: B4 VL with Q79E, P80Y
B10: SIRP21 (antibody, human IgG4 S228P, kappa, V domains shown)
VH: B4 VH with R72V
VL: B4 VL with Q79E, P80Y
B11: SIRP8 (antibody, V domains shown)
VH: EVQLQESGGGLVKPGGSLKLSCAASGFTLSTYTMSWVRQTPEKRLEWVAIITSGDTYTYYPDSVKGRFTISRDNAKNTLYLQMSSLKSEDTGMYYCTRDRPLFHWGQGTTLTVST
VL: QIVLTQSPAIMSASPGEKVTMTCSASSSVSYMYWYQQKPGSSPRLLIYDTSNLASGVPVRFSGSGSGTSYSLTISRMEAEDAATYYCQQWSSFPWTFGGGTKLEIK
B12: SIRP13 (antibody, human IgG4 S228P, kappa, V domains shown)
VH: B4 VH
VL: B4 VL with L89Q
B13: SIRP14 (antibody, human IgG4 S228P, kappa, V domains shown)
VH: B4 VH with A16S, M70I, R72A, T74K, V79A
VL: B4 VL
B14: SIRP19 (antibody, human IgG4 S228P, kappa, V domains shown)
VH: B5 VH
VL: B4 VL with L89Q
B15: SIRP16 (antibody, human IgG4 S228P, kappa, V domains shown)
VH: B4 VH with A16S, M70I, R72A, T74K, V79A
VL: B4 VL with L89Q
B16: SIRP22 (antibody, human IgG4 S228P, kappa, V domains shown)
VH: B4 VH with R72V
VL: B4 VL with L89Q

What follows are binders tested against T1, Fc tagged human SIRPγ (ACRO # SIG-H5253) (human, UniProt Q9P1W8 29-360) (assay: ELISA, plate-coated Fc tagged human SIRPγ; apparent Kd).
T1 construct: Bought protein; it includes the transmembrane and cytoplasmic part, which a soluble Fc fusion would not carry; also called Fc tagged human SIRP gamma; recombinant human SIRP gamma; not shown: Fc tag
Experimental: The binding of anti-SIRP antibodies of the present disclosure to SIRP gamma (SIRPγ) was determined by ELISA using an Fc tagged human SIRPγ. Binding by soluble anti-SIRP antibodies was measured in vitro.
(§1) Fc tagged human SIRPγ (ACRO # SIG-H5253) is adsorbed to high-binding microtiter plates at a concentration of 1 μg/ml in phosphate buffered saline (PBS) overnight at 4° C. The coating solution is removed, the wells are washed and then blocked with 75% casein in PBS containing 0.5% Tween 20 (PBST) for 60 minutes at room temperature while shaking. Blocking solution is removed, the wells are washed and incubated for 60 minutes at room temperature while shaking with anti-SIRP mAbs diluted in PBST at a starting concentration of 30 μg/ml and reducing the concentration in 3-fold serial dilutions. Wells are washed three times with PBST and incubated for 60 minutes at room temperature while shaking with an HRP labeled donkey anti-mouse or anti-human secondary antibody (Jackson ImmonResearch Laboratories) diluted 1:10,000 in PBST. The wells are washed and then incubated with peroxidase substrate and the absorbance at 450 nm determined. The apparent affinities were calculated using a non-linear fit model (GraphPad Prism).

T1 sequence (Q9P1W8 29-360 limits assumed): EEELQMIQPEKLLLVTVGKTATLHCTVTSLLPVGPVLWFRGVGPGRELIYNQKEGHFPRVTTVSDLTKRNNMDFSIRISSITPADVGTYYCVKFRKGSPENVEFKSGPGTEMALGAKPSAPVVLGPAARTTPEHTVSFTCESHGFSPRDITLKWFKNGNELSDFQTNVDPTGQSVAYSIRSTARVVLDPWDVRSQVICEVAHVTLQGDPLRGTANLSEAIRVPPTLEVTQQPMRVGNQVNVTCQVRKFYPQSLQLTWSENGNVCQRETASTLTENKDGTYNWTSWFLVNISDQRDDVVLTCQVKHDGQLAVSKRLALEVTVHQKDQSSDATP

Kd	Binder
0.183 nM	B1
> 10 nM	B2
0.225 nM	B3
7.22 nM	B4
> 15 nM	B5
> 12 nM	B6
> 29 nM	B7
> 34 nM	B8
> 14 nM	B9
> 21 nM	B10

The binders below were run against T2, Fc tagged human SIRPα (ACRO # SIG-H5251, genotype variant 1) (human, UniProt P78324 31-370, limits assumed) (assay: ELISA, plate-coated Fc tagged human SIRPα; apparent Kd).
T2 construct: Bought protein; also called Fc tagged human SIRP alpha; recombinant human SIRPα; not shown: Fc tag
Experimental: The binding of anti-SIRP monoclonal antibodies (mAbs) of the present disclosure to SIRP alpha (SIRPα) was determined by solid phase ELISA using an Fc tagged human SIRP alpha. Binding by soluble anti-SIRP antibodies was measured in vitro.
Fc tagged human SIRPα (ACRO # SIG-H5251, genotype variant 1) is adsorbed to high-binding microtiter plates at a concentration of 1 μg/ml diluted in phosphate buffered saline (PBS) overnight at 4° C. The coating solution is removed, the wells are washed and then blocked with 75% casein in PBS containing 0.5% Tween 20 (PBST) for 60 minutes at room temperature while shaking. Blocking solution is removed, the wells are washed and incubated for 60 minutes at room temperature while shaking with either murine or human anti-SIRP mAbs diluted in PBST at a starting concentration of 30 μg/ml and reducing the concentration in 3-fold serial dilutions. Wells are washed three times with PBST and incubated for 60 minutes at room temperature while shaking with an HRP-labeled donkey anti-mouse or anti-human secondary antibody (Jackson ImmunoResearch Laboratories) diluted 1:10,000 in PBST. The wells are washed and then incubated with peroxidase substrate and the absorbance at 450 nm measured. The apparent affinities were calculated using a non-linear fit model (GraphPad Prism).

T2 sequence (P78324 31-370 limits assumed, change not shown, form in doubt): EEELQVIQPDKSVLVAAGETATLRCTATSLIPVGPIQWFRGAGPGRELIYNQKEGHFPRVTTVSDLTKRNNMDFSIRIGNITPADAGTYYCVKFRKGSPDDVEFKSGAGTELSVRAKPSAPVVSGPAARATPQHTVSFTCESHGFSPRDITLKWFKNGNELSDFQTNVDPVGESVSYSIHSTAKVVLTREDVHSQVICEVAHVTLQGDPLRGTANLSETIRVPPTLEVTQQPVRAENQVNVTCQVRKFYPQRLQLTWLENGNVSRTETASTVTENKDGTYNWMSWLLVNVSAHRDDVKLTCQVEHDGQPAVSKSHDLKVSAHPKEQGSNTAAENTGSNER

Kd	Binder
0.131 nM	B1
> 10 nM	B2
0.164 nM	B3
0.057 nM	B11
0.194 nM	B4
0.326 nM	B5
0.165 nM	B6
1.56 nM	B12
0.565 nM	B13
> 19 nM	B14
0.157 nM	B7
> 40 nM	B15
0.364 nM	B8
> 11 nM	B16
0.608 nM	B9
0.274 nM	B10

Each binder was assayed against T1, Fc tagged human SIRPγ (ACRO # SIG-H5253) (assay: ELISA, plate-coated Fc tagged human SIRPγ).
Experimental: as §1

binding result	Binder
no binding (tested: 30 µg/ml)	B11
no binding (tested: 30 µg/ml)	B12
no binding (tested: 30 µg/ml)	B13
no binding (tested: 30 µg/ml)	B14
no binding (tested: 30 µg/ml)	B16

The binders below were run against T1, Fc tagged human SIRPγ (ACRO # SIG-H5253) (assay: blocking ELISA: mAb with human SIRPγ (ACRO # SIG-H5253) on plate-coated HIS tagged human CD47).
Experimental: HIS tagged human CD47 (ACRO # CD7-H5227) is adsorbed to high-binding microtiter plates at a concentration of 2 μg/ml diluted in PBS overnight at 4° C. The coating solution is removed, the wells are washed and then blocked with 75% casein in PBS containing 0.5% Tween 20 (PBST) for 60 minutes at room temperature while shaking. Blocking solution is removed, the wells are washed and incubated for 60 minutes at room temperature while shaking with anti-SIRP mAbs diluted in PBST at a starting concentration of 30 μg/ml and reducing the concentration in 3 fold serial dilutions and 0.5 μg/ml of human SIRPγ (ACRO # SIG-H5253). Wells are washed three times with PBST and incubated for 60 minutes at room temperature while shaking with an HRP labeled donkey anti-mouse or anti-human secondary antibody (Jackson ImmunoResearch Laboratories) diluted 1:20,000 in PBST. The wells are washed and then incubated with peroxidase substrate and the absorbance at 450 nm determined. The IC₅₀ was calculated using a non-linear fit model (GraphPad Prism).

IC50	Binder
0.86 nM	B1
